Assay results reported in publication PMC9165289, “Theranostic PSMA ligands with optimized backbones for intraoperative multimodal imaging and photodynamic therapy of prostate cancer” (European Journal of Nuclear Medicine and Molecular Imaging, 2022).
Read-outs that look alike come from different tables or passages of the source.

What was measured:
[1] = PSMA-N064 blocking experiment, ex vivo biodistribution; type: in vivo, BALB/c nude mice; settings: male, BALB/c nude, mouse, in vivo, total radioactivity, 2 h p.i., n=5
Description: All animal experiments were approved by the institutional Animal Welfare Committee of the Radboud University Medical Center and were conducted in accordance to the guidelines of the Revised Dutch Act on Animal Experimentation. Animal experiments were performed in 8–10 weeks old male BALB/c nude mice (Janvier). The mice were housed in individually ventilated cages (Blue line IVC, 3–5 mice per cage), under standard non-sterile conditions with cage enrichment present. There was free access to chlorophyll-free animal chow (Sniff Voer) and water. Mice were subcutaneously inoculated with 3.0 × 10^6 LS174T-PSMA cells in the right flank and 1.5 × 10^6 LS174T WT cells in the left flank (diluted in 200-µl RPMI 1640 medium). When xenografts were approximately 0.5 cm^3 (10–14 days after injection), mice were block-randomized into groups based on tumor size. The researchers were not blinded for the experimental groups.
Five mice per group were intravenously injected with either 0.1 nmol PSMA-N064, 0.3 nmol PSMA-N064, 0.1 nmol PSMA-N064 + 10 nmol unlabeled PSMA-617 (100x excess) or PSMA-617. Ligands were labeled with 10 MBq ^111In in PBS+0.5% (w/v) BSA. For the ex vivo biodistribution four groups (one for each experimental condition) of five mice were included. Two hours p.i., all mice from all groups were euthanized by CO2/O2-asphyxiation and relevant tissues were dissected, weighed and measured for radioactivity in a gamma-counter (2480 WIZARD^2 Automatic Gamma Counter, PerkinElmer).

LS174T-PSMA cells = assay: in vitro binding and internalization assay; type: cell-based, human; settings: 37 °C, 2 h
Description: The binding and internalization characteristics of the ligands were determined using LS174T-PSMA cells. Cells were cultured to confluency in 6-well plates followed by incubation with 50,000 counts per minute of ^111In-labeled ligand (0.1–0.25 pmol/well) in 1-ml RPMI + 0.5% BSA (37 °C, 2 h). Non-specific binding was determined by coincubation with 2(phosphonomethyl)-pentane-1,5-dioic acid (2-PMPA, 21.57 µM). PSMA-specific binding was defined as total binding minus the non-specific binding. To retrieve the membrane-bound fraction, cells were washed twice with PBS and incubated for 10 min at 0 °C with acid buffer (154-mM NaCl, 0.1 M acetic acid, pH 2.6). After incubation, the membrane-bound fraction was collected. Then, cells were washed and lysed with 0.1 M NaOH, and the cell lysate (intracellular activity) was collected. Intracellular and membrane-bound activity fractions were measured in a gamma-counter (2480 WIZARD^2 Automatic Gamma Counter, PerkinElmer).

C[Si](C)(CCC[N+](CCCS(=O)(=O)[O-])(CCCS(=O)(=O)O)CCCS(=O)(=O)O)O[Si]1(O[Si](C)(C)CCC[N+](CCCS(=O)(=O)[O-])(CCCS(=O)(=O)O)CCCS(=O)(=O)O)n2c3c4ccccc4c2N=C2N=C(N=c4c5c(OCCCOC(=O)NCCCCCC(=O)NCCCC[C@H](NC(=O)CCC(C(=O)O)N6CCN(CC(=O)O)CCN(CC(=O)O)CCN(CC(=O)O)CC6)C(=O)N[C@@H](Cc6ccccc6)C(=O)N[C@@H](CCC(=O)O)C(=O)N[C@@H](CCC(=O)O)C(=O)NCCCCCC(=O)NCCCC[C@H](NC(=O)N[C@@H](CCC(=O)O)C(=O)O)C(=O)O)cccc5c(n41)=NC1=NC(=N3)c3ccccc31)c1ccccc12 (some centres unmarked) [PSMA-N064]
tissue uptake at 2 h ([1]; iv, 0.1 nmol, 0.1 nmol, 10 MBq, i.v., read-out: Biodistribution Blood): 0.2 ± 0.2 %ID/g | tissue uptake at 2 h ([1]; iv, 0.1 nmol, 0.1 nmol, 10 MBq, i.v., read-out: Biodistribution Bone): 0.7 ± 0.2 %ID/g | tissue uptake at 2 h ([1]; iv, 0.1 nmol, 0.1 nmol, 10 MBq, i.v., read-out: Biodistribution Kidney): 82.9 ± 7.8 %ID/g | tissue uptake at 2 h ([1]; iv, 0.1 nmol, 0.1 nmol, 10 MBq, i.v., read-out: Biodistribution Liver): 0.8 ± 0.1 %ID/g | tissue uptake at 2 h ([1]; iv, 0.1 nmol, 0.1 nmol, 10 MBq, i.v., read-out: Biodistribution Muscle): 0.4 ± 0.4 %ID/g | tissue uptake at 2 h ([1]; iv, 0.1 nmol, 0.1 nmol, 10 MBq, i.v., read-out: Biodistribution Prostate): 0.5 ± 0.2 %ID/g | tissue uptake at 2 h ([1]; iv, 0.1 nmol, 0.1 nmol, 10 MBq, i.v., read-out: Biodistribution Salivary glands): 0.6 ± 0.1 %ID/g | tissue uptake at 2 h ([1]; iv, 0.1 nmol, 0.1 nmol, 10 MBq, i.v., read-out: Biodistribution Spleen): 1.6 ± 0.4 %ID/g | tissue uptake at 2 h ([1]; iv, 0.1 nmol, 0.1 nmol, 10 MBq, i.v., read-out: Biodistribution Tumor+ LS174T-PSMA): 12 ± 2 %ID/g | tissue uptake at 2 h ([1]; iv, 0.1 nmol, 0.1 nmol, 10 MBq, i.v., read-out: Biodistribution Tumor- LS174T): 0.4 ± 0.1 %ID/g | tissue uptake at 2 h ([1]; iv, 0.3 nmol, 0.3 nmol, 10 MBq, i.v., read-out: Biodistribution Blood): 0.4 ± 0.3 %ID/g | tissue uptake at 2 h ([1]; iv, 0.3 nmol, 0.3 nmol, 10 MBq, i.v., read-out: Biodistribution Bone): 0.8 ± 0.1 %ID/g | tissue uptake at 2 h ([1]; iv, 0.3 nmol, 0.3 nmol, 10 MBq, i.v., read-out: Biodistribution Kidney): 64.4 ± 9.7 %ID/g | tissue uptake at 2 h ([1]; iv, 0.3 nmol, 0.3 nmol, 10 MBq, i.v., read-out: Biodistribution Liver): 1 ± 0.2 %ID/g | tissue uptake at 2 h ([1]; iv, 0.3 nmol, 0.3 nmol, 10 MBq, i.v., read-out: Biodistribution Muscle): 0.5 ± 0.3 %ID/g | tissue uptake at 2 h ([1]; iv, 0.3 nmol, 0.3 nmol, 10 MBq, i.v., read-out: Biodistribution Prostate): 0.6 ± 0.2 %ID/g | tissue uptake at 2 h ([1]; iv, 0.3 nmol, 0.3 nmol, 10 MBq, i.v., read-out: Biodistribution Salivary glands): 0.6 ± 0.2 %ID/g | tissue uptake at 2 h ([1]; iv, 0.3 nmol, 0.3 nmol, 10 MBq, i.v., read-out: Biodistribution Spleen): 1.9 ± 0.5 %ID/g | tissue uptake at 2 h ([1]; iv, 0.3 nmol, 0.3 nmol, 10 MBq, i.v., read-out: Biodistribution Tumor+ LS174T-PSMA): 12.2 ± 1.1 %ID/g | tissue uptake at 2 h ([1]; iv, 0.3 nmol, 0.3 nmol, 10 MBq, i.v., read-out: Biodistribution Tumor- LS174T): 0.5 ± 0.1 %ID/g | tissue uptake at 2 h ([1]; 0.1 nmol + 10 nmol unlabeled PSMA-617 (block, 100x excess), read-out: Biodistribution Blood): 0.2 ± 0.1 %ID/g | tissue uptake at 2 h ([1]; 0.1 nmol + 10 nmol unlabeled PSMA-617 (block, 100x excess), read-out: Biodistribution Bone): 0.4 ± 0.1 %ID/g | tissue uptake at 2 h ([1]; 0.1 nmol + 10 nmol unlabeled PSMA-617 (block, 100x excess), read-out: Biodistribution Kidney): 39.5 ± 5 %ID/g | tissue uptake at 2 h ([1]; 0.1 nmol + 10 nmol unlabeled PSMA-617 (block, 100x excess), read-out: Biodistribution Liver): 0.7 ± 0.2 %ID/g | tissue uptake at 2 h ([1]; 0.1 nmol + 10 nmol unlabeled PSMA-617 (block, 100x excess), read-out: Biodistribution Muscle): 0.1 ± 0.1 %ID/g | tissue uptake at 2 h ([1]; 0.1 nmol + 10 nmol unlabeled PSMA-617 (block, 100x excess), read-out: Biodistribution Prostate): 0.2 ± 0.1 %ID/g | tissue uptake at 2 h ([1]; 0.1 nmol + 10 nmol unlabeled PSMA-617 (block, 100x excess), read-out: Biodistribution Salivary glands): 0.4 ± 0.1 %ID/g | tissue uptake at 2 h ([1]; 0.1 nmol + 10 nmol unlabeled PSMA-617 (block, 100x excess), read-out: Biodistribution Spleen): 0.5 ± 0.1 %ID/g | tissue uptake at 2 h ([1]; 0.1 nmol + 10 nmol unlabeled PSMA-617 (block, 100x excess), read-out: Biodistribution Tumor+ LS174T-PSMA): 1 ± 0.1 %ID/g | tissue uptake at 2 h ([1]; 0.1 nmol + 10 nmol unlabeled PSMA-617 (block, 100x excess), read-out: Biodistribution Tumor- LS174T): 0.4 ± 0.2 %ID/g

C[Si](C)(CCC[N+](CCCS(=O)(=O)[O-])(CCCS(=O)(=O)O)CCCS(=O)(=O)O)O[Si]1(O[Si](C)(C)CCC[N+](CCCS(=O)(=O)[O-])(CCCS(=O)(=O)O)CCCS(=O)(=O)O)n2c3c4ccccc4c2N=C2N=C(N=c4c5c(OCCCOC(=O)NCCCCCC(=O)NCCCC[C@H](NC(=O)CN6CCN(CC(=O)O)CCN(CC(=O)O)CCN(CC(=O)O)CC6)C(=O)NCCCC[C@H](NC(=O)[C@H](CCC(=O)O)NC(=O)c6ccccc6)C(=O)NC[C@H]6CC[C@H](C(=O)N[C@@H](Cc7ccc8ccccc8c7)C(=O)NCCCC[C@H](NC(=O)N[C@@H](CCC(=O)O)C(=O)O)C(=O)O)CC6)cccc5c(n41)=NC1=NC(=N3)c3ccccc31)c1ccccc12 [PSMA-N03]
internalization percentage (percentage of cell-associated ligand that was internalized) (LS174T-PSMA cells): 73–90%

C[Si](C)(CCC[N+](CCCS(=O)(=O)[O-])(CCCS(=O)(=O)O)CCCS(=O)(=O)O)O[Si]1(O[Si](C)(C)CCC[N+](CCCS(=O)(=O)[O-])(CCCS(=O)(=O)O)CCCS(=O)(=O)O)n2c3c4ccccc4c2N=C2N=C(N=c4c5c(OCCCOC(=O)NCCCCCC(=O)NCCCC[C@H](NC(=O)CN6CCN(CC(=O)O)CCN(CC(=O)O)CCN(CC(=O)O)CC6)C(=O)NCCCC[C@H](NC(=O)[C@H](CCC(=O)O)NC(=O)c6ccccc6)C(=O)NCc6ccc(C(=O)N[C@@H](Cc7ccc8ccccc8c7)C(=O)NCCCC[C@H](NC(=O)N[C@@H](CCC(=O)O)C(=O)O)C(=O)O)cc6)cccc5c(n41)=NC1=NC(=N3)c3ccccc31)c1ccccc12 [PSMA-N01]
internalization percentage (percentage of cell-associated ligand that was internalized) (LS174T-PSMA cells): 73–90%
